Test results published in IntAct's records for PubMed 16834335.

B1: Modulator of FtsH protease HflC (Escherichia coli (strain K12)), P0ABC3 (parent)
chain: MRKSVIAIIIIVLVVLYMSVFVVKEGERGITLRFGKVLRDDDNKPLVYEPGLHFKIPFIETVKMLDARIQTMDNQADRFVTKEKKDLIVDSYIKWRISDFSRYYLATGGGDISQAEVLLKRKFSDRLRSEIGRLDVKDIVTDSRGRLTLEVRDALNSGSAGTEDEVTTPAADNAIAEAAERVTAETKGKVPVINPNSMAALGIEVVDVRIKQINLPTEVSEAIYNRMRAEREAVARRHRSQGQEEAEKLRATADYEVTRTLAEAERQGRIMRGEGDAEAAKLFADAFSKDPDFYAFIRSLRAYENSFSGNQDVMVMSPDSDFFRYMKTPTSATR
partner: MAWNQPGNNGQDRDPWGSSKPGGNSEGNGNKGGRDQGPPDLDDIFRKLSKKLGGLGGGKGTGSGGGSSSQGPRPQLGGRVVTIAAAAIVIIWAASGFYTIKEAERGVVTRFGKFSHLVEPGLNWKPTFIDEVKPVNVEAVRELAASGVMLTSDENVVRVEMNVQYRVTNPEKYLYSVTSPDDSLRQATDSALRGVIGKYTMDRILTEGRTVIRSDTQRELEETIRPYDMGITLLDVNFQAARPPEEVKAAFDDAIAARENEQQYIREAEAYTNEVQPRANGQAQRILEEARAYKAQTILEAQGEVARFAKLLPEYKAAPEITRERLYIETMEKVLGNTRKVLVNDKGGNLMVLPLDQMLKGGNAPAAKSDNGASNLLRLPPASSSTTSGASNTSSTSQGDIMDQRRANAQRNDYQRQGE

Variants of: B1
Settings: with hflk_ecoli hflK

| effect of a mutation on the interaction | Variant |
| --- | --- |
| decreasing interaction strength | MRKSVIAIIIIVLVVLYMSVFVVKEGERGITLRFGKVLRDDDNKPLVYEPGLHFKIPFIETVKMLDARIQTMDNQADRFVTKEKKDLIVDSYIKWRISDFSRYYLATGGGDISQAEVLLKRKFSDRLRSEIGRLDVKDIVTDSRGRLTLEVRDALNSGSAGTEDEVTTPAADNAIAEAAERVTAETKGKVPVINPNSMAALGIEVVDVRIKQINLPTEVSEAIYNRMRAEREAVARRHRSQGQEEAEKLRATADYEVTRTLAEAERQGRIMRGEGDAEAAKLFADIFSKDPDFYAFIRSLRAYENSFSGNQDVMVMSPDSDFFRYMKTPTSATR [A286I] |
